{"source": "patent US6902885", "about": "(APOPTOSIS TECHNOLOGY, dated 2005)", "molecular_target": "T1, caspase 9 (UniProt P55211 1-416)", "T1 sequence": "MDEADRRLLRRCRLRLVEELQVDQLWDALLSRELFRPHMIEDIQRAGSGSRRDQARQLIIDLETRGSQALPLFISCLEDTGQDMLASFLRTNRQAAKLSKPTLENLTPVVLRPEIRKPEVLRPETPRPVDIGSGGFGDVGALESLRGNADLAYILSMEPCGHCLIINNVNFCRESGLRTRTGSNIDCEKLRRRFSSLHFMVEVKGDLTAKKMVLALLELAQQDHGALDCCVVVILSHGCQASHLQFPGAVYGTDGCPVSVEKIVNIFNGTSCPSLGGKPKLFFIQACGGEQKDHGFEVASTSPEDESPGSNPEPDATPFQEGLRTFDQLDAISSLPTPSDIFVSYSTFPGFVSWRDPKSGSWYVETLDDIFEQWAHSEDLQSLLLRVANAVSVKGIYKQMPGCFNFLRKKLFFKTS", "test": "pull-down: pUL37Smyc held by anti-myc antibody on protein G agarose beads, 35S-labelled in vitro translated protein, SDS-PAGE", "data": [{"binder": "pUL37Smyc (HCMV pUL37S fused at its C-terminus with a c-myc-epitope tag) (other, range 410-419; also called pUL37x1; pUL37x1myc) MSPVYVNLLGSVGLLAFWYFSYRWIQRKRLEDPLPPWLRKKKACALTRRSRHRLRRQHGVIDGENSETERSVDLVAALLAEAGEESVTEDTEREDTEEEREDEEEENEARTPEVNPIDAEGLSGLAREACEALKKALRRHRFLWQRRQRARMLQHNGPQQSHQ", "values": [{"measurement": "binding result", "result": "no binding"}]}]}
